Where a chain is given by its changes, count along the chain named. Where two headings read alike, the source gives them in different places.
T1: wtTIA-RRM123 (Homo sapiens, UniProt P31483-2 1-274)
T1 sequence: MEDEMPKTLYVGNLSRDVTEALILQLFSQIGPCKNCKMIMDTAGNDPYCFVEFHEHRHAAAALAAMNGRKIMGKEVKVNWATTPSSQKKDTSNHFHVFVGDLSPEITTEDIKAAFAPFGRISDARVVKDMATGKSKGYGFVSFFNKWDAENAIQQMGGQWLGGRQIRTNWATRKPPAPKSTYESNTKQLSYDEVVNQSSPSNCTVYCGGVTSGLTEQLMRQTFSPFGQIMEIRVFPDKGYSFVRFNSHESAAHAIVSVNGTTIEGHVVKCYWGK

T2: TIA-Mut3 (Homo sapiens, UniProt P31483-2 1-274, Y206A;F242A)
T2 sequence: T1 sequence with Y206A, F242A


Columns and labels:
wtTIA-RRM123 [1] = target: T1, wtTIA-RRM123; assay: EMSA
wtTIA-RRM123 [2] = target: T1, wtTIA-RRM123; assay: ITC
wtTIA-RRM123 [3] = target: T1, wtTIA-RRM123; assay: ITC; remark: listed apart in the source
TIA-Mut3 [4] = target: T2, TIA-Mut3; assay: ITC
wtTIA-RRM123 [5] = target: T1, wtTIA-RRM123; assay: ITC; remark: listed apart in the source
TIA-Mut3 [6] = target: T2, TIA-Mut3; assay: ITC; remark: listed apart in the source

| Binder | binding result (wtTIA-RRM123 [1]) | Kd (wtTIA-RRM123 [2]) [nM] | Kd (wtTIA-RRM123 [3]) [nM] | Kd (TIA-Mut3 [4]) [nM] | Kd (wtTIA-RRM123 [5]) [nM] | Kd (TIA-Mut3 [6]) [nM] |
| --- | --- | --- | --- | --- | --- | --- |
| UUAUUUAUUUA (ssRNA) [tnf-a ARE RNA (11 nt)] | binds |  |  |  |  |  |
| UUUUUUUUUUUUUUUUUUUU (ssRNA) [U20 RNA] |  | 240 ± 10 | 620 ± 70 | 1270 ± 60 | 0.5 ± 0.1 | 14.4 ± 6.1 |
